This note sets out measurements from US20220249597A1 (Johns Hopkins, published 2022).

The target of the test is T1, endogenous MIF (macrophage migration inhibitory factor) in HeLa cell lysates (human, UniProt P14174 2-115).
T1 construct: Endogenous protein in lysate, detected by western blot with an anti-MIF antibody; also called MMIF; PAAN
Put plainly: pull-down of AIF mutants, western blot with anti-MIF antibody.

T1 sequence (P14174 2-115 limits assumed): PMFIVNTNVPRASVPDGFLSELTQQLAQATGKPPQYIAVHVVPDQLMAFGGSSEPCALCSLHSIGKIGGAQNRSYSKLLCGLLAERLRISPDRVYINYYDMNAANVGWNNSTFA

B1: AIFm567-592 (full length AIF with aa567-592 mutated into polyalanines) (other, mouse, UniProt Q9Z0X1 1-612, looked up)
chain: MFRCGGLAGAFKQKLVPLVRTVYVQRPKQRNRLPGNLFQQWRVPLELQMARQMASSGSSGGKMDNSVLVLIVGLSTIGAGAYAYKTIKEDQKRYNERVMGLGLSPEEKQRRAIASATEGGSVPQIRAPSHVPFLLIGGGTAAFAAARSIRARDPGARVLIVSEDPELPYMRPPLSKELWFSDDPNVTKTLQFRQWNGKERSIYFQPPSFYVSAQDLPNIENGGVAVLTGKKVVHLDVRGNMVKLNDGSQITFEKCLIATGGTPRSLSAIDRAGAEVKSRTTLFRKIGDFRALEKISREVKSITVIGGGFLGSELACALGRKSQASGIEVIQLFPEKGNMGKILPQYLSNWTMEKVKREGVKVMPNAIVQSVGVSGGRLLIKLKDGRKVETDHIVTAVGLEPNVELAKTGGLEIDSDFGGFRVNAELQARSNIWVAGDAACFYDIKLGRRRVEHHDHAVVSGRLAGENMTGAAKPYWHQSMFWSDLGPDVGYEAIGLVDSSLPTVGVFAKATAQDNPKSATEQSGTGIRSESETESEASEITIPPSAPAVPQVPVEGEDYGKGVIFYAAAAAAAAAAAAAAAAAAAAAAAAAADGEQHEDLNEVAKLFNIHED
In the case of B1, the binding result was “no binding”.

B2: AIFA567-592 (full length AIF with aa567-592 deleted) (other, mouse, UniProt Q9Z0X1 1-612, looked up)
chain: MFRCGGLAGAFKQKLVPLVRTVYVQRPKQRNRLPGNLFQQWRVPLELQMARQMASSGSSGGKMDNSVLVLIVGLSTIGAGAYAYKTIKEDQKRYNERVMGLGLSPEEKQRRAIASATEGGSVPQIRAPSHVPFLLIGGGTAAFAAARSIRARDPGARVLIVSEDPELPYMRPPLSKELWFSDDPNVTKTLQFRQWNGKERSIYFQPPSFYVSAQDLPNIENGGVAVLTGKKVVHLDVRGNMVKLNDGSQITFEKCLIATGGTPRSLSAIDRAGAEVKSRTTLFRKIGDFRALEKISREVKSITVIGGGFLGSELACALGRKSQASGIEVIQLFPEKGNMGKILPQYLSNWTMEKVKREGVKVMPNAIVQSVGVSGGRLLIKLKDGRKVETDHIVTAVGLEPNVELAKTGGLEIDSDFGGFRVNAELQARSNIWVAGDAACFYDIKLGRRRVEHHDHAVVSGRLAGENMTGAAKPYWHQSMFWSDLGPDVGYEAIGLVDSSLPTVGVFAKATAQDNPKSATEQSGTGIRSESETESEASEITIPPSAPAVPQVPVEGEDYGKGVIFYDGEQHEDLNEVAKLFNIHED
Consider B2, for which the binding result is on record as “no binding”.
